Laboratory results: patent US20100111943A1 (MEDICAL COLLEGE OF GEORGIA RESEARCH INSTITUTE, published 2010)

Tests used:
Assay in all cases: co-IP: anti-FLAG M2 immunoprecipitates immunoblotted with anti-CHIP
[1] = target: T1, FLAG (F)-tagged hsp90α K292Q mutant (UniProt P07900 1-732)
T1 construct: Made by site-directed mutagenesis, expressed by transfection; also called K/Q mutant at K292; acetylation-mimetic mutant; not shown: FLAG tag
Description: (§1) Following culture in the plates for 24 hours, cells were transfected by Lipofectamine Plus following the protocol provided by Invitrogen (Carlsbad, Calif.). Transfected cells were cultured in full-medium containing drugs dissolved in DMSO or vehicle for 24 hours. Cellular extracts were prepared by directly adding lysis buffer (25 mM Tris-phosphate, pH 7.8, 2 mM DTT, 2 mM 1,2-diaminocyclohexane-N′,N′,N′,N′-tetraacetic acid, 10% glycerol, 0.2% Triton X-100) to the cells on ice. For immuno-precipitations (IP), 2×10⁶ cells in 100 mm dishes were transfected and/or treated as described above. Cellular extracts were prepared and immunoprecipitation performed as described 24. For immunoblotting, cellular extracts or immunoprecipitates were separated on SDS-PAGE, transferred to a nitrocellulose membrane, probed with antibodies, and visualized with enhanced chemiluminescence, as described (Chen, Z., et al., Mol. Pharmacol., 69:1527-33 (2006)).
(§2) The mutants were also analyzed for their ability to bind ATP, as well as for binding to co-chaperones, client proteins and the biotinylated (B) GA (geldanamycin) (Kamal, A., et al., Nature., 425:407-10 (2003)). Precipitates from the mixture of cell lysates containing hsp90α and ATP-sepharose were analyzed with anti-F antibody.

[2] = target: T2, FLAG (F)-tagged hsp90α K292R mutant (UniProt P07900 1-732)
T2 construct: Made by site-directed mutagenesis, expressed by transfection; also called K/R mutant at K292; acetylation-deficient mutant; not shown: FLAG tag
Description: as §1, §2

[3] = target: T3, FLAG (F)-tagged hsp90α K546R mutant (UniProt P07900 1-732)
T3 construct: Made by site-directed mutagenesis, expressed by transfection; also called K/R mutant at K546; acetylation-deficient mutant; not shown: FLAG tag
Description: as §1, §2

[4] = target: T4, FLAG (F)-tagged hsp90α K478R mutant (UniProt P07900 1-732)
T4 construct: Made by site-directed mutagenesis, expressed by transfection; also called K/R mutant at K478; acetylation-deficient mutant; not shown: FLAG tag
Description: as §1, §2

[5] = target: T5, FLAG (F)-tagged hsp90α K327R mutant (UniProt P07900 1-732)
T5 construct: Made by site-directed mutagenesis, expressed by transfection; also called K/R mutant at K327; acetylation-deficient mutant; not shown: FLAG tag
Description: as §1, §2

[6] = target: T6, FLAG (F)-tagged hsp90α (wild type) (UniProt P07900 1-732)
T6 construct: Expressed from a plasmid described in cited literature, or translated in vitro; also called F-hsp90α; F-hsp90; not shown: FLAG tag
Description: as §1, §2

[7] = target: T7, FLAG (F)-tagged hsp90α K69R mutant (UniProt P07900 1-732)
T7 construct: Made by site-directed mutagenesis, expressed by transfection; also called K/R mutant at K69; acetylation-deficient mutant; not shown: FLAG tag
Description: as §1, §2

[8] = target: T8, FLAG (F)-tagged hsp90α K558R mutant (UniProt P07900 1-732)
T8 construct: Made by site-directed mutagenesis, expressed by transfection; also called K/R mutant at K558; acetylation-deficient mutant; not shown: FLAG tag
Description: as §1, §2

[9] = target: T9, FLAG (F)-tagged hsp90α K100R mutant (UniProt P07900 1-732)
T9 construct: Made by site-directed mutagenesis, expressed by transfection; also called K/R mutant at K100; acetylation-deficient mutant; not shown: FLAG tag
Description: as §1, §2

Measured: binding result

B1: CHIP (other, UniProt Q9UNE7 1-303, looked up)
chain: MKGKEEKEGGARLGAGGGSPEKSPSAQELKEQGNRLFVGRKYPEAAACYGRAITRNPLVAVYYTNRALCYLKMQQHEQALADCRRALELDGQSVKAHFFLGQCQLEMESYDEAIANLQRAYSLAKEQRLNFGDDIPSALRIAKKKRWNSIEERRIHQESELHSYLSRLIAAERERELEECQRNHEGDEDDSHVRAQQACIEAKHDKYMADMDELFSQVDEKRKKRDIPDYLCGKISFELMREPCITPSGITYDRKDIEEHLQRVGHFDPVTRSPLTQEQLIPNLAMKEVIDAFISENGWVEDY
notes: Endogenous protein co-immunoprecipitated from cell lysates and detected with anti-CHIP
binds: all assays above
